According to the DeepSol protein solubility set:

Experiment: soluble on expression in E. coli; label from the status in PepcDB or PDB records

Sequence | soluble on expression in E. coli
MENQAALCVLLSDRANTHAHIFVHPHFLSFTLTKSCFCCGNLIYWFVTLYLNFRSRKKSEKMRSRSGSGVRLDRILFMVEQTICSHQNPITALFANQKDFPGHAWVRDNVYIAQALWALYRAYMKCADFDEDLTKAKELGFTCVKMMQSILECLMRQAEKVELFKKYQRPLDALHSKFAVGTKGTVCGDADWGHLQMDAISLYLLTLAQITASGLQVVRNFDEVAFIQNLVYYIETGYRTPDYGVWERGDKTNQGIRELNASSIGMVKAALQALNDVGDLFVDGSRGSVVHVLPDEIEQCSAVLSSMLPRESFSKETDAALLGIISYPAFCVEDPELVSQTRETITQRLLGKYGCRRFMRDGYKTVLEDASRLYYNKSELQQFEDIECEWPIFLCYLILDAMYSKDDDAVEAYWRQLESVLVLSDKGFRLVPELYVVLKEHVSAEKAHPGTQDRVPGGATPFLWAQSLYVIICLLYEGFLLPAELDPLSRRLSVYEKRPPCEVQVTVLAESLDVQRELRAHDIHVQCVDEIDPVFTILPASALGQLLAKIGESKKLNLSGRPLDRPIGLLSTSRLYQIGNKFVIFTPQFMDSRRSHLMYDIRILTDEWSSELQYIYASWNSVSISGRPLVVLVITQGMLSTEGLSHFSNIHLNRHMKSTVIGAIKKINTGYLSGARVVMKDLSDFFRTTAVSKMEFRDKSAEDTLRSVAAEKVQFTLLTEDATEAKNEKITTPRGPRTLRRGESVKDRSAYTAVHKASMRHRSIALDSNDADLMKLRLAYKSRPRDLQDMDSTYQSPPPTQTPLGLVKEHSSGELRQQLLKTTRRGAENETTHRDLTAEQMNEMKADDLLDLVNETTVLEEQISIVHCLWMKFGPDYDTELGCQHITVRMLMEEVHTKACEAREWALVRLTAGLLKKQLEEPQQSCYSSFVSPFELKSMIFSLLSGRLLEEYAEDGIHYSDTIRETRTGIGSFRRQIEERKSLRKSTRSVGGLEIPKEEDEDEEADEDDFQFGIWLRHRRIDGALNRVPNGFYAILWDTVHKMPHGVKINDTVLHWGLTQEMTRKEIKFALESEEALNRIAEPEYRELVVETLWLLGRLEKLVLLEQPNIPRDRPLDVDHILHVANQIFVDHNKHLETIVMECCASSNPNNTRCDGARNICKHFYDSAPAGEYGTSHYIIRALMQLYS | not soluble
LITMNYNSPTIGMHQNLTIILPEDVTFFDSSTTAKHLKSMLLLHGLSSDETTYIRYTSIERYANEHQLAIIMPNVDHSGYANMVYGHSYYDYILEIYEYVHQILPLSRKREDNFIAGHSMGGYGTIKFALTQSDKFAKAAPLSAVFEAQRFIDLDWTDFSPQSITGNNTQIKGTELDTYYLLDQAIDANVDIPELFIMCGKEDFLYHDNLQFIETLNKKGVSYKFEDGPGNHDYAYWDRAIKRAIEWFVQ | not soluble
MNRESFAAGERLVSPAYVRQGCEARRSHEHLIRLLLEKGKCPENGWDESTLELFLHELAIMDSNNFLGNCGVGEREGRVASALVARRHYRFIHGIGRSGDISAVQPKAAGSSLLNKITNSLVLDIIKLAGVHTVANCFVVPMATGMSLTLCFLTLRHKRPKAKYIIWPRIDQKSCFKSMITAGFEPVVIENVLEGDELRTDLKAVEAKVQELGPDCILCIHSTTSCFAPRVPDRLEELAVICANYDIPHIVNNAYGVQSSKCMHLIQQGARVGRIDAFVQSLDKNFMVPVGGAIIAGFNDSFIQEISKMYPGRASASPSLDVLITLLSLGSNGYKKLLKERKEMFSYLSNQIKKLSEAYNERLLHTPHNPISLAMTLKTLDEHRDKAVTQLGSMLFTRQVSGARVVPLGSMQTVSGYTFRGFMSHTNNYPCAYLNAASAIGMKMQDVDLFIKRLDRCLKAVRKERSKESDDNYDKTEDVDIEEMALKLDNVLLDTYQDASS | soluble
MSIKKSPVYNVIAVPVEKVQANDYNPNVVAPPEMRLLELSIWEDGFTMPCVCYYDKEKDVYILVDGFHRYSVLKTSKRIFQRENGMLPIVVIEKDLSNRMSSTIRHNRARGTHNIELMCHIVAELDKAGMSDQWIMKNIGMDRDELLRLKQISGLADLFANRDFSVPEDDQPGNVDKKPTR | not soluble
MGSDKIHHHHHHMKIAVLSGKGGTGKTLVAVNLAAAAQRSTYIDCDVEEPNGHLFFKPEILQEEEITVKIPRVEDTLCQGCRRCVDFCQFNALAYIKEKLLVFEDVCHSCGGCILLCPEKALTEQEKGIGKVQKGLSDQVRVYTGVLNIGEVSGVPIIKKLLNENKSDKNEPESDQLTFIDCPPGSACSVMESIKDADYCLLVAEPTLFGVHNLNMVHELVKIFNKPCGVVLNKSLEGENPAETFCLEKNIKILSRLPFDHELGRLNSNAEIAVRKSEPYKALFSALLETVTKEVQHETAAYS | not soluble
MAHHHHHHNEKDIGKLKKTFEAFDHNGDGVLTISEIFQCLKLNDNELDTELYFLLKQLDTDGNGLIDYTEFLAACLDHSIFQQDVICRNAFNVFDLDGDGVITKEELFNILSFSAVQVSFSKEIIENLIKEVDANNDGFIDYDEFYKMMTGAK | soluble
MAFWQSKTLTEMTSQEWESLCDGCGKCCLNKLIDDETEELYYTNAACLLLDHQTTSCQHYSDRFRYVPQCTVITAQNVHELTWLPDSCAYRRLAAGRALPSWHPLLTGSKDAMHLAGMSIQGKVVDERRVKDIEDHIVLWPLKDLD | soluble
MSLNNKVLVTGGTGFVGMRIISRLLEQGYEVQTTIRDLSKADKVIKTMQDNGISTERLMFVEADLSQDEHWDEAMKDCKYVLSVASPVFFGKTDDAEVMAKPAIEGIQRILRAAEHAGVKRVVMTANFGAVGFSNKDKNSITNESHWTNEDEPGLSVYEKSKLLAEKAAWDFVENENTIVEFATINPVAIFGPSLDAHVSGSFHLLENLLNGSMKRVPQIPLNVVDVRDVAELHILAMTNEQANGKRFIATADGQINLLEIAKLIKEKRPEIAQKVSTKKLPDFILSLGAKFNHQAKEGKLLLDMNRNVSNERAKTLLGWEPIATQEEAILAAIDSMAKFHLIEGHHHHHH | soluble
MEKVMKCHRVEELLQLLEPEWHKDSELNLIQFLLKLAQEAGYQGALEDLTDDVLIYHLKMRNSAKDAVIPGLKKDYEDDFKTAILRARGIIK | not soluble
MGSDKIHHHHHHMKSYRKELWFHTKRRREFINITPLLEECVRESGIKEGLLLCNAMHITASVFINDDEPGLHHDFEVWLEKLAPEKPYSQYKHNDTGEDNADAHLKRTIMGREVVIAITDRKMDLGPWEQVFYGEFDGMRPKRVLVKIIGE | soluble
GGPTIMVALANPRTESALITLASALAQHEDGRVLATHIATVPDQTALETAAANRDRIDATSESLLDTAKADAEAFDVPIETKTILSHRGIEEVFDAARTNHADTVVMGYGGTQFAGGRAEGTLDELAHDLPCDFLVLDGQDL | not soluble
MSLSEKAKKPQKLKARLPRGFVDRSAADIHATNEMVDKIRRVYELYGFDPIETPLFEYTDALGKFLPDSDRPNEGVFSLQDDDDQWMSLRYDLTAPLARHVAENFNEIQLPYRTYRAGYVFRNEKPGPGRFRQFMQFDADTVGAAGVQADAEMCMMMADTMEALGIARGDYVIRVNNRKVLDGVMEAIGLGGEDNAGRRLNVLRAIDKLDKFGPEGVKLLLGPGRKDESGDFTKGAGLGDEQIEKVLFFVGIKDYAASADDLAKLVAGTSKGEEGVDELNTIGALVSGAGYDATRIKIDPSVVRGLEYYTGPVYEAELTFDVTNEKGEKVVFGSVGGGGRYDGLVSRFMGQPVPATGFSIGVSRLMTALKNLGKLGQVKPLAPVLITVMDGDVESMGRYQRFTQALRAEGIRAEMYQGNWKKFGNQLKYADRLGSPIAIIQGGDERAEGVVQIKDLIEGKRLSGEIEDNASWREARVAQVSEGHHHHHH | soluble
ADVAIVGGGFVGLWTAITLKQLEPDARVLLLEQDVCGGGASGRNGGFVMSWWPKIGTLLGFCSEAQARFLGESAERAIQELGEFCARHDIDAHFQQKGWLWTATTAHHLDAWNDTLAACERLGVSPFERLDASEVARRTGSPVHLAGVFERSNATVQPALLVQGMRRVALALGVEIHERCGVSQIVPGQPAQLLSAGARVQAKAVVLATNAWSAALPRLSRLIVPVNSSIAVTEAIPQRLERIGWTGGEAITDSQLMVDYYRTTRDGRIAFGKGTGALSYGSRIGRVFDVDRESLALTEADFRRTYPSLGDIPLVDGWSGPIDRTYDSLPVFGRLHENIHYGIGWSGNGVGPSRLGGRILASLALGRDDPWSR | not soluble
DVTNAEKLVYKYTNIAHSANPMYEAPSITDGKIFFNRKFKTPSGKEAACASCHTNNPANVGKNIVTGKEIPPLAPRVNTKRFTDIDKVEDEFTKHCNDILGADCSPSEKANFIAYLLTETKPTK | soluble
